We go through three molecules from patent US20260250421A1 (BIOCYTOGEN PHARMACEUTICALS BEIJING, published 2026).

In general, Kd refers to the equilibrium constant for the complex coming apart. The term koff denotes a measure of how fast the partners let go of each other. By kon is commonly meant a measure of how fast the partners come together. By EC50 (read off the curve) is commonly meant the concentration giving half of the maximal effect.

Substitutions are numbered along the chain they refer to.

Assay [1] has as its target T1, dog PTK7 on dog cancer cell lines (dog, UniProt A0A8I3N574 31-1070).
T1 construct: whole, on cells; Endogenous protein on dog tumour cell lines; also called PTK7 on CMT-U27 and D-17 cells; dog cancer cells
T1 sequence: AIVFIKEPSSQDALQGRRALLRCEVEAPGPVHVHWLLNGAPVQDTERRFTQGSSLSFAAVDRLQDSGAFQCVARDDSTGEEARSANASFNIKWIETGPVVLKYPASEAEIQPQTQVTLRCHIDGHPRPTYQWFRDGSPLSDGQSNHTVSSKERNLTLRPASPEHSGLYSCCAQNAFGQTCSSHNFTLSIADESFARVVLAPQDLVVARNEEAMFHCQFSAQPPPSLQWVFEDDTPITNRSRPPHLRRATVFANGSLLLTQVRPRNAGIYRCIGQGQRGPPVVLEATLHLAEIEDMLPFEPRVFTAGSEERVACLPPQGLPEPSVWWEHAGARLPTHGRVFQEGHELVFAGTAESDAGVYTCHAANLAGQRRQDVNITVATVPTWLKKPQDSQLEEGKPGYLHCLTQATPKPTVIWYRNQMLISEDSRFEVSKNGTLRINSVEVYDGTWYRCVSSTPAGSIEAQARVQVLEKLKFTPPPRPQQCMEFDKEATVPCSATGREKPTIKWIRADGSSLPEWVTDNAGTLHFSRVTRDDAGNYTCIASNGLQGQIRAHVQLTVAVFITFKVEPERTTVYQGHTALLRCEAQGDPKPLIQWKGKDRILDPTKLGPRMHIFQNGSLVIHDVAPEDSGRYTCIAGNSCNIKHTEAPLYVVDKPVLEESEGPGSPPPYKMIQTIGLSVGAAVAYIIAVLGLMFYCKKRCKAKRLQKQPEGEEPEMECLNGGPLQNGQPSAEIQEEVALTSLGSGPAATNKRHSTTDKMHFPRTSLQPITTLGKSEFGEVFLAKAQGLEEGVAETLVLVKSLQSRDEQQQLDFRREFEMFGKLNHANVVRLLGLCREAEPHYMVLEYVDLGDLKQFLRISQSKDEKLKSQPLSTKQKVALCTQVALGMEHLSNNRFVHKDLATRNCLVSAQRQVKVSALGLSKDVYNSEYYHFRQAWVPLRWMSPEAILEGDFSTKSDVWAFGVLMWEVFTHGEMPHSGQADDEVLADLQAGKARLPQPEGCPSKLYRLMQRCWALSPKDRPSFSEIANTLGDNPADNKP
As to the kind of experiment: flow cytometry on CMT-U27 and D-17 cells. On the procedure:
(§1) The binding activity of anti-PTK7 antibodies to cancer cell lines was verified by flow cytometry. […] Purified anti-PTK7 antibody with a concentration of 5 μg/mL was added to each well and was incubated at 4° C. for 30 minutes. […] The cells were collected, and the mean fluorescence intensity (MFI) was determined. Human IgG1 was used as ISO control.
On the technique in general: In flow cytometry, cells or beads pass a laser one at a time.

Assay [2] has as its target T2, His-tagged dog PTK7 protein (dog, UniProt Q13308 31-703 (human entry)).
T2 construct: also called dPTK7-His
T2 chain: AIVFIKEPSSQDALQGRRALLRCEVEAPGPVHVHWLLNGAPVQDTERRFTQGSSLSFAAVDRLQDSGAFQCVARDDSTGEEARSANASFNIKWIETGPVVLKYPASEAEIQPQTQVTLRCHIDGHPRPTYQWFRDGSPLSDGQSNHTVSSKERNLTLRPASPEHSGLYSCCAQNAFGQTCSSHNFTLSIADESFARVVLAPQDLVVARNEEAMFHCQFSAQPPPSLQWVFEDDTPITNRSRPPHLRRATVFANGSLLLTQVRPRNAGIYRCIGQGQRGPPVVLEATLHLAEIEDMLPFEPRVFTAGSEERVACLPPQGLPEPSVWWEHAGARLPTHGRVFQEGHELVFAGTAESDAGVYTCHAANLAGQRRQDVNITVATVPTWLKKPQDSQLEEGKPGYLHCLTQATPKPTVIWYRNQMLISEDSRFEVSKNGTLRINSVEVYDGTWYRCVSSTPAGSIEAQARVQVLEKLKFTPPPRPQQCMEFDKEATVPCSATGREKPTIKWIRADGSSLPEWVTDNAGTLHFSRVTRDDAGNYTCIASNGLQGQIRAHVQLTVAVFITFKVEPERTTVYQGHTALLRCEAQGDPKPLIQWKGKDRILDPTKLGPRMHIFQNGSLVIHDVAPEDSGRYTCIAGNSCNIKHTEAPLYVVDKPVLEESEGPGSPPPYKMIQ
As to the kind of experiment: SPR Biacore 8K, Ab on Protein A chip. On the procedure: Purified anti-PTK7 antibodies were diluted to 1 μg/mL and then injected into the Biacore™ 8K biosensor at 10 μL/min for about 50 seconds to achieve a desired protein density (e.g., about 50 response units (RU)). The His-tagged PTK7 protein at a concentration of 200 nM or 0 nM was then injected at 30 μL/min for 180 seconds. Dissociation was monitored for 400 seconds. The chip was regenerated after the last injection of each titration with glycine (pH 2.0, 30 μL/min for 30 seconds).
For orientation: Surface plasmon resonance follows binding to a sensor surface in real time, without labels.

The target of assay [3] is T1, dog PTK7 on dog cancer cell lines. Description: flow cytometry, D-17 dog cells, Ab 5 ug/mL. On the procedure:
as §1

Assay [4] has the same target. As to the kind of experiment: flow cytometry, CMT-U27 dog cells, Ab 5 ug/mL. On the procedure: as §1
Assay [5] deals with T3, TROP2 on NCI-H1975 and NUGC-4 tumor cells (UniProt P09758 27-323, limits assumed).
T3 construct: whole, on cells; species of the lines is not worded there; also called TROP2 on cells
T3 sequence (looked up): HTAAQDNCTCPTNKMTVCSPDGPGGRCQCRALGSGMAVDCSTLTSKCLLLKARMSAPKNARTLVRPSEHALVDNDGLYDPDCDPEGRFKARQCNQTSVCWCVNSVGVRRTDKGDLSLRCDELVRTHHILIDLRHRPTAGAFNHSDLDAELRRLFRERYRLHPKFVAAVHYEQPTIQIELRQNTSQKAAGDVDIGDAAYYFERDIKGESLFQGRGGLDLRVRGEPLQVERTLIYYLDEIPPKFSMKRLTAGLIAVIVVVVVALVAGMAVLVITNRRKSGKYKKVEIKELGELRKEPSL
As to the kind of experiment: flow cytometry on NUGC-4 cells (only TROP2 expression), anti-hIgG-Fc Alexa Fluor 647 secondary antibody, MFI [B]. On the procedure: (§2) This experiment was performed to test the binding activities of the anti-PTK7/TROP2 bispecific antibodies to different tumor cell lines. NCI-H1975 cells or NUGC-4 cells were transferred to a 96-well plate at a density of 5×10⁴ cells/well respectively. The sample antibody was added to the 96-well plate, and incubated at 4° C. for 30 min.

For assay [6], the target named is T4, His-tagged human TROP2 protein (human, UniProt P09758 27-274).
T4 construct: Bought protein; also called hTROP2-His; ACRO Biosystems Cat# TR2-H5223; not shown: His tag
T4 sequence (looked up): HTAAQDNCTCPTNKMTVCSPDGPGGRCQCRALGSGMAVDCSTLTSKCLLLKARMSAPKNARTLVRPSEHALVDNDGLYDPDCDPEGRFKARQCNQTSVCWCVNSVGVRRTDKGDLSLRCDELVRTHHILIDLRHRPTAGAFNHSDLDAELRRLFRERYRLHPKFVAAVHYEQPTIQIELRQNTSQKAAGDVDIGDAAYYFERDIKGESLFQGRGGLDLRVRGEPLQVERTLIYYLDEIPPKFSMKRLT
As to the kind of experiment: SPR Biacore 8K, Ab on Protein A chip. On the procedure: (§3) The affinity of the anti-TROP2 antibodies to His-tagged human TROP2 protein (hTROP2-His, ACRO Biosystems Inc., Cat #: TR2-H5223), His-tagged cynomolgus monkey TROP2 protein (cTROP2-His, ACRO Biosystems Inc., Cat #: TR2-R52H3) and His-tagged dog TROP2 protein (dTROP2-His, ACRO Biosystems Inc., Cat #: TR2-C52H4) were measured by surface plasmon resonance (SPR) using Biacore™ (Biacore, INC, Piscataway N.J.) 8K biosensor equipped with pre-immobilized Protein A sensor chips.
(§4) Purified anti-TROP2 antibodies were diluted to 1 μg/mL and then injected into the Biacore™ 8K biosensor at 10 μL/min for about 50 seconds to achieve a desired protein density (e.g., about 350 response units (RU)). The His-tagged TROP2 protein at a concentration of 200 nM was then injected at 30 μL/min for 180 seconds. Dissociation was monitored for 400 seconds. The chip was regenerated after the last injection of each titration with glycine (pH 2.0, 30 μL/min for 30 seconds).

The target in assay [7] is T5, His-tagged monkey TROP2 protein (cynomolgus monkey; Rhesus …, UniProt A0A5F8AGB8 27-274).
T5 construct: also called cTROP2-His; ACRO Biosystems Cat# TR2-R52H3
T5 sequence: T4 sequence (looked up) with M36V, S67N, I204V
As to the kind of experiment: SPR Biacore 8K, Ab on Protein A chip. On the procedure:
as §3, §4

The target of assay [8] is T3, TROP2 on NCI-H1975 and NUGC-4 tumor …. As to the kind of experiment: flow cytometry on NCI-H1975 cells (PTK7/TROP2 co-expression), anti-hIgG-Fc Alexa Fluor 647 secondary antibody, MFI [A]. On the procedure: as §2

B1: hu24 analog (antibody, IgG1, V domains shown)
VH: QVQLVQSGPEVKKPGASVKVSCKASGYTFTDYAVHWVRQAPGKRLEWIGVISTYNDYTYNNQDFKGRVTMTRDTSASTAYMELSRLRSEDTAVYYCARGNSYFYALDYWGQGTSVTVSS
VL: EIVLTQSPATLSLSPGERATLSCRASESVDSYGKSFMHWYQQKPGQAPRLLIYRASNLESGIPARFSGSGSGTDFTLTISSLEPEDFAVYYCQQSNEDPWTFGGGTKLEIK
notes: Humanized IgG1 monoclonal antibody targeting PTK7; also called positive control
For the molecule B1, the binding result is given as “no binding (tested: 5 ug/mL)” in assay [1], “no binding (tested: 200 nM)” in assay [2] and “no binding (tested: about 20 µg/mL)” in assay [5]. Also, the MFI in assay [3] is 3690; in assay [4] it was 1940.

B2: Sacituzumab analog (antibody, V domains shown)
VH: QVQLQQSGSELKKPGASVKVSCKASGYTFTNYGMNWVKQAPGQGLKWMGWINTYTGEPTYTDDFKGRFAFSLDTSVSTAYLQISSLKADDTAVYFCARGGFGSSYWYFDVWGQGSLVTVSS
VL: DIQLTQSPSSLSASVGDRVSITCKASQDVSIAVAWYQQKPGKAPKLLIYSASYRYTGVPDRFSGSGSGTDFTLTISSLQPEDFAVYYCQQHYITPLTFGAGTKVEIKR
notes: also called antibody portion of Sacituzumab govitecan
Take B2: the Kd in assay [6] came to 1.24 nM; in assay [7], 1.11 nM. For the same molecule, the koff in assay [6] worked out at 0.000255 s⁻¹; in assay [7], 0.000245 s⁻¹. The figures for the kon in assay [6] and in assay [7] were 205000 M⁻¹ s⁻¹ and 221000 M⁻¹ s⁻¹, respectively. Besides, the “EC50 (read off the curve)” value in assay [5] was about 0.6 µg/mL; in assay [8], about 0.7 µg/mL.

B3: DS-1062 analog (antibody, V domains shown)
VH: QVQLVQSGAEVKKPGASVKVSCKASGYTFTTAGMQWVRQAPGQGLEWMGWINTHSGVPKYAEDFKGRVTISADTSTSTAYLQLSSLKSEDTAVYYCARSGFGSSYWYFDVWGQGTLVTVSS
VL: DIQMTQSPSSLSASVGDRVTITCKASQDVSTAVAWYQQKPGKAPKLLIYSASYRYTGVPSRFSGSGSGTDFTLTISSLQPEDFAVYYCQQHYITPLTFGQGTKLEIK
notes: The sheet names it 'DS-1062 analog' with no LALA or SI suffix, so it is kept apart from m18 (DS-1062 analog-LALA); also called antibody portion of DS-1062; copies: 2 + 2
Regarding B3, the half-maximal effective concentration (EC50 (read off the curve)) in assay [5] is about 0.3 µg/mL; in assay [8], about 0.4 µg/mL.
